Assay results: US20120064064A1

Target: human IL1-R (human) (UniProt P14778)
Assay: cell-based or functional assay

Sequence of UniProt P14778 (P14778 18-569): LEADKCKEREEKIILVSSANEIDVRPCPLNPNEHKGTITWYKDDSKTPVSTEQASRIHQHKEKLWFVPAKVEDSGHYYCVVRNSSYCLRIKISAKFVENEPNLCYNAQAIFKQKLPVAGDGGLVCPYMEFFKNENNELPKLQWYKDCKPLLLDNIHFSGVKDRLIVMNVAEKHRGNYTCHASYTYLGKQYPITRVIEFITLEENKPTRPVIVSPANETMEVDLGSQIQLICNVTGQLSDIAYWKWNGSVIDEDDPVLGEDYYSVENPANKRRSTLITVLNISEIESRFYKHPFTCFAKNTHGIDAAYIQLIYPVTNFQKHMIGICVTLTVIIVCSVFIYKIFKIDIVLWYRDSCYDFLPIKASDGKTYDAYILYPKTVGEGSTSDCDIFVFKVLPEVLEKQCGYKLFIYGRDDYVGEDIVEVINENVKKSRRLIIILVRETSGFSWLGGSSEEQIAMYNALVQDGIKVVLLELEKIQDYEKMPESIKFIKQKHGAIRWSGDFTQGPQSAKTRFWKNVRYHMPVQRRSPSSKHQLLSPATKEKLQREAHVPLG

IL-8 release assay in MRC-5 cells (IL-1a stimulated), EC50: 0.074 nM
Substance: natural IL1-R antagonist (IL1-Ra) (from UniProt P18510 26-177) (ligand)
